The target of one assay is ypk1_yeast YPK1 (UniProt P12688).
Another assay has as its target atc5_yeast DNF1 (UniProt P32660).

atc5_yeast DNF1, sequence (P32660 whole entry): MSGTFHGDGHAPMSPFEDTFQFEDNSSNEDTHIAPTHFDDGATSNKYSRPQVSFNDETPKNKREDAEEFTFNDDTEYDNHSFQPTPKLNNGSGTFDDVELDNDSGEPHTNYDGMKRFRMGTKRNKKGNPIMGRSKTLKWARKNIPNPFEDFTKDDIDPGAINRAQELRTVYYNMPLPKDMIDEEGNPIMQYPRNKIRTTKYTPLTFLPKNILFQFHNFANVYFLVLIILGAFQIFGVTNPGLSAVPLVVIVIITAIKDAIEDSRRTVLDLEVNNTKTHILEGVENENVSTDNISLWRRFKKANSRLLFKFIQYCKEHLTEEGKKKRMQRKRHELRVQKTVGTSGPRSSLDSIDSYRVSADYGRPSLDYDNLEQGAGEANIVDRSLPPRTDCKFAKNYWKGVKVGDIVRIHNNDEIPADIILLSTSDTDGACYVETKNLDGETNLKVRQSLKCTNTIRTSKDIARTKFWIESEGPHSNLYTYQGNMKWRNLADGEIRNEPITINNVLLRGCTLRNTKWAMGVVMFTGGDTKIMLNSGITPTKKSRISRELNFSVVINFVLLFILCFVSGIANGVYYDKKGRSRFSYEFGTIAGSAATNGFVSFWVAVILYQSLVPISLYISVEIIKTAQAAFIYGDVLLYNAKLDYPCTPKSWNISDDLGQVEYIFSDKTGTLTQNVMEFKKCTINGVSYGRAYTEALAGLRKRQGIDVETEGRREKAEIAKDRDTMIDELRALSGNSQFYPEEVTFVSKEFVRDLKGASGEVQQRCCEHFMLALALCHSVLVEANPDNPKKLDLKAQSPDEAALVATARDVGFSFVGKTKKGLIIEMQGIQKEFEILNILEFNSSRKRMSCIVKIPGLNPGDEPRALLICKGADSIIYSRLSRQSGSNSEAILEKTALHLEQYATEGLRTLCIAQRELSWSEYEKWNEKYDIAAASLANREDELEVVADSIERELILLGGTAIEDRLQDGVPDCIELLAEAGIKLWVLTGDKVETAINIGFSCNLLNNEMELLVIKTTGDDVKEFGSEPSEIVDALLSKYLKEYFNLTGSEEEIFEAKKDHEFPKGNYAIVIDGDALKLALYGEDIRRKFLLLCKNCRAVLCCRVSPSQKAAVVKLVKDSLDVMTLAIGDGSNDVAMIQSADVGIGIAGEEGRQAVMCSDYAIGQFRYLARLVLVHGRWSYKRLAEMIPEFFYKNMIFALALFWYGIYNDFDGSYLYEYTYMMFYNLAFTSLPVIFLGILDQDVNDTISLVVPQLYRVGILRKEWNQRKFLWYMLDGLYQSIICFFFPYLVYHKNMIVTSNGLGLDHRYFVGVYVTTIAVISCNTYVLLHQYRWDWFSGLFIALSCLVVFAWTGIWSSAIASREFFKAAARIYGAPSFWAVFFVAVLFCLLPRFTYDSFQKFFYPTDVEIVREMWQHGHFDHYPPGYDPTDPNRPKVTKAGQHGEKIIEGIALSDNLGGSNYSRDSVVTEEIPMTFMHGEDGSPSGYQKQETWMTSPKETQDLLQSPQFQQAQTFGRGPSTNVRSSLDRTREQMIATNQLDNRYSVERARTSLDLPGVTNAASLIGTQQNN
ypk1_yeast YPK1, sequence (P12688 whole entry): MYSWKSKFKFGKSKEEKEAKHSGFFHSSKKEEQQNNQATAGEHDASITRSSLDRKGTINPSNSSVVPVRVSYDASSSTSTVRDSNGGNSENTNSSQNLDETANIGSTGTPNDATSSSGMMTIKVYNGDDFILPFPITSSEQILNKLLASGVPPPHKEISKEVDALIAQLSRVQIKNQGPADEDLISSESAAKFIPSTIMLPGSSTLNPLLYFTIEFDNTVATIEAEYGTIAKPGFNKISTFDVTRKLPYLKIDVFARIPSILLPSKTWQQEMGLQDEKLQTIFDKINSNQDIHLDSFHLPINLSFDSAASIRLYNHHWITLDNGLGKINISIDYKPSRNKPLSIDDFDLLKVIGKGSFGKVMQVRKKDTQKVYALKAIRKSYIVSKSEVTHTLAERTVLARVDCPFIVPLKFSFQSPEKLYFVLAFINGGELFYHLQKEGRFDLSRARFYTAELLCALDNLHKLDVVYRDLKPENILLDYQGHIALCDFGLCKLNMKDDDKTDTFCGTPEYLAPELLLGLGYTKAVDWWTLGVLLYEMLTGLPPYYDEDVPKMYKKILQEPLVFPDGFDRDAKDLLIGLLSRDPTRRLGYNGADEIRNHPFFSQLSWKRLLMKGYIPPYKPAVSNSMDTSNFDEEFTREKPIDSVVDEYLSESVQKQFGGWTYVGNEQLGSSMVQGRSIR

As to “Flippase kinase 1 (Saccharomyces cerevisiae), P53739 D621A”, the “effect of a mutation on the interaction” value with ypk1_yeast YPK1 and in the assay with atc5_yeast DNF1 was “disrupting interaction” each time.

The values are drawn from IntAct's records for PubMed 19966303.
